The record followed here is paper PMC5667550 (SLAS discovery : advancing life sciences R & D, 2017).

Ends that are not written are not given here. * marks the point of attachment. Biotin = O=C1N[C@H]2[C@H](CS[C@H]2CCCCC(=O)*)N1

This assay deals with Klebsiella pneumonia PriA protein fused to an N-terminal 6xHis purification tag (Klebsiella pneumonia, UniProt A6TGC5 1-731). In words: AlphaScreen or HTRF.
Chain of Klebsiella pneumonia PriA protein fused to an N-terminal 6xHis purification tag (A6TGC5 whole entry, the tested form may be a part): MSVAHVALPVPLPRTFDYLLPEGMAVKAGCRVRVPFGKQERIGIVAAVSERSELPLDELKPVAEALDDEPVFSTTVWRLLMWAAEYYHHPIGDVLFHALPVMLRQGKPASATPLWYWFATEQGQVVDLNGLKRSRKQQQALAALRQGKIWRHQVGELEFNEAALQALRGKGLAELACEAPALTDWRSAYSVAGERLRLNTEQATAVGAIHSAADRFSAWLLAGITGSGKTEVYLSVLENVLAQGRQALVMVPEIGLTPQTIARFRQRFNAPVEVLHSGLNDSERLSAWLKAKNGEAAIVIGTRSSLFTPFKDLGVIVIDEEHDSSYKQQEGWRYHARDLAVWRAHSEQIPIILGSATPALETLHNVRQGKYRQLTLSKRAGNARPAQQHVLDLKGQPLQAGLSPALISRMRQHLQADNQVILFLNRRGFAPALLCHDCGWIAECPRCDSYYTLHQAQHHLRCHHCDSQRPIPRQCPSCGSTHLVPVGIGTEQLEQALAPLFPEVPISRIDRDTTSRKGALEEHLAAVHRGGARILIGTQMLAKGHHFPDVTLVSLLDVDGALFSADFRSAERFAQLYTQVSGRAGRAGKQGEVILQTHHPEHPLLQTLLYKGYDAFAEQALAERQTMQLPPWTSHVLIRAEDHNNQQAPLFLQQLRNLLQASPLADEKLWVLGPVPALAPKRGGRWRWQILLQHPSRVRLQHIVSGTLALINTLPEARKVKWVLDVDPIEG

B1: N-terminally biotinylated SSBct (peptide)
peptide: Biotin-WMDFDDDIPF
Consider B1, for which the binding result was “binds”.
